Like-named read-outs stand apart in the source and are kept apart here.
Experiments:
[1] = biological target: T1, pro-heparanase (H60), purified recombinant human 60 kDa latent heparanase
T1 chain: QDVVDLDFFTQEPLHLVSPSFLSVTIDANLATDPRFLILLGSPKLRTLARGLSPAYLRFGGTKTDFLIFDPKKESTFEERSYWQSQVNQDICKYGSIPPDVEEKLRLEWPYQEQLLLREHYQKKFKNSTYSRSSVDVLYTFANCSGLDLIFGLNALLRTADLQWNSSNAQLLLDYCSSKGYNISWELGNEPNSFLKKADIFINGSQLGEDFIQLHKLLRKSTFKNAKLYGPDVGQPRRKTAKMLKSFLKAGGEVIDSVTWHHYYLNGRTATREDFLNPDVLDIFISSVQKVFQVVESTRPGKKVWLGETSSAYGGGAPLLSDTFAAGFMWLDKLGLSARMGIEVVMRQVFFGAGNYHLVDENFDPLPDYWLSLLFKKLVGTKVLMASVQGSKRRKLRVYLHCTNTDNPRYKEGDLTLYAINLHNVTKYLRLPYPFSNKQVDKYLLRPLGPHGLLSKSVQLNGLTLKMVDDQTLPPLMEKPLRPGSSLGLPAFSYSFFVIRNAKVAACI

[2] = tested on: T2, pro-heparanase (H60), purified recombinant human 60 kDa latent heparanase; remark: listed apart in the source
T2 sequence: T1 chain

B1: elastase from human neutrophils (Calbiochem, 324681) (protein)
chain: IVGGRRARPHAWPFMVSLQLRGGHFCGATLIAPNFVMSAAHCVANVNVRAVRVVLGAHNLSRREPTRQVFAVQRIFENGYDPVNLLNDIVILQLNGSATINANVQVAQLPAQGRRLGNGVQCLAMGWGLLGRNRGIASVLQELNVTVVTSLCRRSNVCTLVRGRQAGVCFGDSGSPLVCNGLIHGIASFVRGGCASGLYPDAFAPVAQFVNWIDSIIQ
heparanase activity after treatment (DMB assay) [1]: treatment of the pro heparanase with cathepsin G or elastase activated the H60 | processing of pro-heparanase in vitro (Western blot) [1]: cathepsin G (FIG. 18) and elastase (FIG. 5), both serine proteases, cleave the pro-heparanase in-vitro, at or near the N-terminus of the H45

B2: cathepsin G (Sigma, C4428) (enzyme, UniProt P08311 21-244, looked up, species assumed)
Cathepsin G: IIGGRESRPHSRPYMAYLQIQSPAGQSRCGGFLVREDFVLTAAHCWGSNINVTLGAHNIQRRENTQQHITARRAIRHPQYNQRTIQNDIMLLQLSRRVRRNRNVNPVALPRAQEGLRPGTLCTVAGWGRVSMRRGTDTLREVQLRVQRDRQCLRIFGSYDPRRQICVGDRRERKAAFKGDSGGPLLCNNVAHGIVSYGKSSGVPPEVFTRVSSFLPWIRTTMRS
heparanase activity after treatment (DMB assay) [2]: treatment of the pro heparanase with cathepsin G or elastase activated the H60 | processing of pro-heparanase in vitro (Western blot) [2]: cathepsin G (FIG. 18) and elastase (FIG. 5), both serine proteases, cleave the pro-heparanase in-vitro, at or near the N-terminus of the H45

From patent publication US20050042213
